Laboratory results: publication PMC6765145
Read-outs that look alike come from different tables or passages of the source.

Assays:
Test in all cases: EMSA
[1] = target: T1, Aca2 (Pectobacterium carotovorum temperate …, UniProt H9C180 1-116)
T1 sequence: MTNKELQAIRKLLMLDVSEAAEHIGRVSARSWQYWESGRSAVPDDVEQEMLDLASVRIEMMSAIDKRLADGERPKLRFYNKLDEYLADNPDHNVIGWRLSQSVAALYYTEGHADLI

[2] = target: T1, Aca2; remark: listed apart in the source
[3] = target: T1, Aca2; remark: listed apart in the source

B1: wtIR1-scIR2 promoter probe (dsDNA)
DNA 1: CACGAATGCGGCCTTAGCGATTAAAAAATATGAAATGCCTTGCTTGTTCGCGATTGCGAACATATAATTTATTCATCGGAGACTACTGCAGGTCTTCGCTCCTAACGAGGATTCCACAATGC
DNA 2: GCATTGTGGAATCCTCGTTAGGAGCGAAGACCTGCAGTAGTCTCCGATGAATAAATTATATGTTCGCAATCGCGAACAAGCAAGGCATTTCATATTTTTTAATCGCTAAGGCCGCATTCGTG
Question: Which Kd [1] does the source give for B1 here?
Answer: 1.07 nM

B2: scIR1-scIR2 promoter probe (dsDNA)
DNA 1: CACGAATGCGGCCTTAGCGATTAAAAAATATGAAATGCCTTGCTTGAGACACGAGAGTCTCATATAATTTATTCATCGGAGACTACTGCAGGTCTTCGCTCCTAACGAGGATTCCACAATGC
DNA 2: GCATTGTGGAATCCTCGTTAGGAGCGAAGACCTGCAGTAGTCTCCGATGAATAAATTATATGAGACTCTCGTGTCTCAAGCAAGGCATTTCATATTTTTTAATCGCTAAGGCCGCATTCGTG
Question: Does B2 bind [2]?
Answer: no binding

B3: scIR1-wtIR2 promoter probe (dsDNA)
DNA 1: CACGAATGCGGCCTTAGCGATTAAAAAATATGAAATGCCTTGCTTGAGACACGAGAGTCTCATATAATTTATTCATCGGTTCGAGATGGCTCGAATCGCTCCTAACGAGGATTCCACAATGC
DNA 2: GCATTGTGGAATCCTCGTTAGGAGCGATTCGAGCCATCTCGAACCGATGAATAAATTATATGAGACTCTCGTGTCTCAAGCAAGGCATTTCATATTTTTTAATCGCTAAGGCCGCATTCGTG
Question: Does B3 bind [3]?
Answer: no binding
